In patent US10765616B2, “Oral formulation of polyglucosamine derivatives in combination with a non-fermentable sugar” (SYNEDGEN, INC., priority 2013, dated 2020):

Key:
S. mutans biofilms [1] = assay: Comparative biofilm reduction study of oral rinses and active ingredients (MBEC pegs); format: cell-based, Streptococcus mutans; conditions: 72 h S. mutans biofilms, treated 2 minutes twice (6-hour interval), vs water control, active ingredients at the concentration printed in the row or sentence
Experimental: Biofilms of S. mutans were grown on hydroxyapatite-coated pegs according to MBEC Assay™ methods for 72 hours, and then treated with the oral rinses or a water control. The corresponding active ingredients were also evaluated. The biofilms were exposed for 2-minutes, twice in a 6-hour interval to evaluate biofilm removal. Following treatment, biofilms were rinsed, fixed, and stained with 0.4% Crystal Violet, and remaining biofilm was quantitated via CFU or OD595 (Beenken and Smeltzer, 2003). Biofilms were analyzed in triplicate in at least 3 independent assays. Ratios were averaged from all assays and the percent biofilm reduced and standard error compared to water control is shown.

A431 epithelial cells = system: A431 epithelial cells
Experimental: Human epithelial cell monolayers of A431 (ATCC CRL-1555) were seeded in tissue culture treated 96-well plates at a density of 2×10^4 cells/well in DMEM media supplemented with 10% FBS, 1% Penicillin-Streptomycin, and 1% Amphotericin B. Seeded cells were incubated at 37° C. with 5% CO2 for 48 hours. The media was removed and replaced with serum-free, antimicrobial-free media and rinsed one time for 30 seconds with PAAG Oral Formulation H, other oral products (Biotene, Corsodyl, Peroxyl, or Listerine), 32 μg/mL PAAG (30% functionalized, 86 kDa) and other active ingredients (0.029% lactoferrin, 0.2% chlorhexidine gluconate, 1.5% hydrogen peroxide, or 20% alcohol). Epithelial cell viability was determined by ATPLite Luminescence ATP Detection Assay System (PerkinElmer). Testing was done in duplicate.
Epithelial cell viability was compared between PAAG and other oral active ingredients and oral rinse products. Human epithelial cell monolayers were rinsed once for 30 seconds with each treatment. Following treatment, the epithelial cells were evaluated with ATP LITE Luminecence assay that measured viability via ATP. The data was normalized to untreated cells to compare percent survival (FIG. 4). […] Epithelial cell viability was determined by ATPLite Luminescence ATP Detection Assay System (Perkin Elmer) and compared to media rinsed cells.

S. mutans biofilms [2] = assay: MBEC peg biofilm biomass reduction assay of active ingredients (twice daily, OD595); format: cell-based, Streptococcus mutans; conditions: 2 minutes, 8-hour interval, 32 μg/mL PAAG, 1.5% hydrogen peroxide, alcohol, lactoferrin, chlorhexidine
Experimental: The S. mutans biofilms were grown according to MBEC™ for High-throughput Screening methods (Innovotech) on a hydroxyapatite-coated peg lid placed in trough containing BHI media supplemented with 1% sucrose rocking for 72 hours. The pegs were treated twice daily with PAAG (30% functionalized, 86 kD) active ingredients (FIG. 9) at 8-hour intervals for 2-minutes. The biofilms were rinsed in PBS, and the pegs were removed and placed into 200 μl 95% ethanol each for 2 minutes to fix the biofilms. The MBEC-HTP biofilms were stained with 150 μl of 3% Crystal Violet dye each for 2 minutes, and rinsed five times with PBS. It was noted that chlorhexidine appears to “fix” the biofilm to the pegs. The bacteria may or may not be viable because OD measured biofilm biomass, not viable CFUs. The stained and rinsed MBEC-HTP biofilms were then placed in 150 μL ethanol for 1-minute to remove the dye/biofilm. Then 100 μL of the ethanol and dyed biofilm suspension was placed into a 96-well plate and the OD595 was measured to quantify the remaining stained biofilm biomass.

B1: lactoferrin (protein, UniProt P02788 20-710, looked up)
Lactotransferrin: GRRRSVQWCAVSQPEATKCFQWQRNMRKVRGPPVSCIKRDSPIQCIQAIAENRADAVTLDGGFIYEAGLAPYKLRPVAAEVYGTERQPRTHYYAVAVVKKGGSFQLNELQGLKSCHTGLRRTAGWNVPIGTLRPFLNWTGPPEPIEAAVARFFSASCVPGADKGQFPNLCRLCAGTGENKCAFSSQEPYFSYSGAFKCLRDGAGDVAFIRESTVFEDLSDEAERDEYELLCPDNTRKPVDKFKDCHLARVPSHAVVARSVNGKEDAIWNLLRQAQEKFGKDKSPKFQLFGSPSGQKDLLFKDSAIGFSRVPPRIDSGLYLGSGYFTAIQNLRKSEEEVAARRARVVWCAVGEQELRKCNQWSGLSEGSVTCSSASTTEDCIALVLKGEADAMSLDGGYVYTAGKCGLVPVLAENYKSQQSSDPDPNCVDRPVEGYLAVAVVRRSDTSLTWNSVKGKKSCHTAVDRTAGWNIPMGLLFNQTGSCKFDEYFSQSCAPGSDPRSNLCALCIGDEQGENKCVPNSNERYYGYTGAFRCLAENAGDVAFVKDVTVLQNTDGNNNEAWAKDLKLADFALLCLDGKRKPVTEARSCHLAMAPNHAVVSRMDKVERLKQVLLHQQAKFGRNGSDCPDKFCLFQSETKNLLFNDNTECLARLHGKTTYEKYLGPQYVAGITNLKKCSTSPLLEACEFLRK
Percent (%) Biomass Reduced (S. mutans biofilms [1]): 25.6 ± 4.3%
Percent (%) Biomass Reduced (S. mutans biofilms [1]; listed as lactoferrin): 25.6±4.3%
epithelial cell viability (A431 epithelial cells): maintain epithelial cell viability
reduction in S. mutans biofilm biomass compared to water control (S. mutans biofilms [2]): did not significantly reduce
